Data taken from US20080234198A1 (Eli Lilly, published 2008).
*1 amine or outer side, *2 acyl side, *3 side chain or, on linkers, in order; H or OH if unused. [ ]: non-standard residue; d: D form. The star is where a group is joined. Tyr(OMe) = methoxy tyrosine, COc1ccc(C[C@H](N[*:1])C(=O)[*:2])cc1; WPEG40K = not defined here; Orn = NCCC[C@H](N)C(=O)O; Abu = CC[C@H](N)C(=O)O; Hexanoyl = CCCCCC(=O)*; Aib = CC(C)(N)C(=O)O

T1: human VPAC2 receptor (human, UniProt P41587 24-438)
T1 construct: whole, on cells; CHO-S cell line stably expressing human VPAC2 (cAMP assays)
T1 sequence (looked up): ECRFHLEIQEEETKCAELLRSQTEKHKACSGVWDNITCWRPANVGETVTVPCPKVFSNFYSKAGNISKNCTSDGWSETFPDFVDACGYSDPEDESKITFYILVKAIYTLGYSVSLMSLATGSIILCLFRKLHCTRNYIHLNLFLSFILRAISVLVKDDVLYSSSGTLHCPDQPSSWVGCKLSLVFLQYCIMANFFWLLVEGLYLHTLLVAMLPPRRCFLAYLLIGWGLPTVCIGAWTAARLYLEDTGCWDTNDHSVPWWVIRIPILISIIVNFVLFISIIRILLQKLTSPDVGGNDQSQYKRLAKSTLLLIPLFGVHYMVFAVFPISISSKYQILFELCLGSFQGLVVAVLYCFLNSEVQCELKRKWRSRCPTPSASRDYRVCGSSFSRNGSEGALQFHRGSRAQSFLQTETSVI

T2: rat VPAC2 receptor (rat, UniProt P35000 23-437)
T2 sequence (looked up): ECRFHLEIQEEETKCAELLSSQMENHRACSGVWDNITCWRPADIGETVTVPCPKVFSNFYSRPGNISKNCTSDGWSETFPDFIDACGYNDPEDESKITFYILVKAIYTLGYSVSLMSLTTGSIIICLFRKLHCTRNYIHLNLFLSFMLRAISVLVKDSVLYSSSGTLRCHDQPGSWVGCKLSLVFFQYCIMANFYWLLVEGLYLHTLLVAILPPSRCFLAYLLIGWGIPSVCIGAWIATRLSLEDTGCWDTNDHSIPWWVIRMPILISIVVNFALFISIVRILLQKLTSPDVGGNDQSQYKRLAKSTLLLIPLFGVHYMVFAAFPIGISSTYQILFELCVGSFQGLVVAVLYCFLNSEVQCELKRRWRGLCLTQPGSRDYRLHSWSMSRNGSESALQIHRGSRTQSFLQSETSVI

T3: rat VPAC1 receptor (rat, UniProt P30083 31-459)
T3 sequence (looked up): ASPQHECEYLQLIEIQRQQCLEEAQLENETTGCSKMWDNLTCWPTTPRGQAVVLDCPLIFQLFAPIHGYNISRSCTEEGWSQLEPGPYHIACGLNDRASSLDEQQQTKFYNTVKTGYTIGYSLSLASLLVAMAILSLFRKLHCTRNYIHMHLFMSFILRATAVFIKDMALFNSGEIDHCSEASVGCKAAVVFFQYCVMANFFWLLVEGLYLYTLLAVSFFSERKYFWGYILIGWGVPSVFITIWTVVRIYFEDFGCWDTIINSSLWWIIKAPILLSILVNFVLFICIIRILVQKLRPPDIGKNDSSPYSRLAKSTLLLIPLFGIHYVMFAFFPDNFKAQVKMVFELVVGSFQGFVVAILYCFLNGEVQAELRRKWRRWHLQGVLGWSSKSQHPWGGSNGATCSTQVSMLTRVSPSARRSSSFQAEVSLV

B1: P490 (peptide)
peptide: HSDAVFTEQYTXLRXQVAAXXYLXSIXXGGPSSGAPPPC
modifications: C6-HSDAVFTEQY(OMe)TOrnLRAibQVAAAibOrnYLK(CO(CH2)2SPEG20K)SIOrnOrnGGPSSGAPPPC(PEG20K)-NH2
B2: P570 (peptide)
peptide: HSDAVFTEQYTXLRXQLAXXXYLQXIXXGGPSSGAPPPCC
modifications: C6-HSDAVFTEQY(OMe)TOrnLRAibQLAAbuAibOrnYLQAibIOrnOrnGGPSSGAPPPC(PEG30K)C(PEG30K)-NH2
B3: P574 (peptide)
peptide: HSDAVFTEQYTXLRXQLAXXXYLQXIXXGGPSSGAPPPCC
modifications: C6-HSDAVFTEQY(OMe)TOrnLRAibQLAAbuAibOrnY(OMe)LQAibIOrnOrnGGPSSGAPPPC(PEG20K)C(PEG20K)-NH2
B4: P582 (peptide)
peptide: HSDAVFTEQYTXLRXQLAXXXYLQSIXXGGPSSGAPPPCC
modifications: C6-HSDAVFTEQY(OMe)TOrnLRAibQLAAbuAibOrnY(OMe)LQSIOrnOrnGGPSSGAPPPC(PEG20K)C(PEG20K)-NH2
B5: P590 (peptide)
peptide: HSDAVFTEQYTXLRXQLXAXXYLQSIXXGGPSSGAPPPCC
modifications: C6-HSDAVFTEQY(OMe)TOrnLRAibQLAbuAAibOrnYLQSIOrnOrnGGPSSGAPPPC(PEG20K)C(PEG20K)-NH2

Tests used:
human VPAC2 receptor [1] = molecular target: T1, human VPAC2 receptor; test: filter binding, VPAC2 cell membranes, displacement of 125I-VIP
Protocol: Binding assays: Membrane prepared from a stable VPAC2 cell line (see Example 3) or from cells transiently transfected with human VPAC1 or PAC1 are used.
The assay plate is filled with 25 μL assay buffer, 25 μL membranes (2.5 μg) suspended in assay buffer, 25 μL agonist in assay buffer, and 25 μL tracer (about 40000 cpm) in assay buffer. The filled plate is incubated for 1 hour with shaking.
The transfer from assay plate to filter plate is conducted. The blocking buffer is aspirated by vacuum filtration and washed two times with flush buffer. 90 μL is transferred from the assay plate to the filter plate. The 90 μL transferred from assay plate is aspirated and washed three times with 200 μL flush buffer. The plastic support is removed. It is dried for 1 hour at 60° C. 30 μL Microscint is added. The count is performed.

rat VPAC2 receptor = molecular target: T2, rat VPAC2 receptor; test: cell-based or functional assay
rat VPAC1 receptor = molecular target: T3, rat VPAC1 receptor; test: cell-based or functional assay
human VPAC2 receptor [2] = molecular target: T1, human VPAC2 receptor; test: cell-based or functional assay

Row | Binder | IC50 (human VPAC2 receptor [1]) [nM] | Rat VPAC2 Receptor: DiscoveRx: (EC50; nM) (rat VPAC2 receptor) [nM] | Rat VPAC1 Receptor: DiscoveRx: (EC50; nM) (rat VPAC1 receptor) [nM] | Human VPAC2 Receptor: Alphascreen (EC50; nM) (human VPAC2 receptor [2]) [nM] | Human VPAC2 Receptor: DiscoveRx (EC50; nM) (human VPAC2 receptor [2]) [nM]
1 | B1 | 13.2 | 192 | > 1000 | 116 | 
2 | HSDAVFTEQYTXLRCQVAAXXYLQSIXXGGPSSGAPPPS (C6-HSDAVFTEQY(OMe)TOrnLRC(PEG40K)QVAAAibOrnYLQSIOrnOrnGGPSSGAPPPS-NH2) [P483] | 37.3 | 128 | 224 | 33.5 | 
3 | HSDAVFTEQYTXLRXQVAAXXYLQSIXXGGPSSGAPPPS (C6-HSDAVFTEQY(OMe)TOrnLRK(CO(CH2)2SPEG40K)QVAAAibOrnYLQSIOrnOrnGGPSSGAPPPS-NH2) [P485] | 17.3 | 42.5 | 735 | 44.5 | 
4 | HSDAVFTEQYTXLRXQVAAXXYLQSIXXGGPSSGAPPPS (C6-HSDAVFTEQY(OMe)TOrnLRAibQVAAK(CO(CH2)2SPEG40K)OrnYLQSIOrnOrnGGPSSGAPPPS-NH2) [P475] | 436 | 220 | > 1000 | 109 | 
5 | HSDAVFTEQYTXLRXQVAAXXYLXSIXXGGPSSGAPPPS (C6-HSDAVFTEQY(OMe)TOrnLRAibQVAAAibOrnYLK(WPEG40K)SIOrnOrnGGPSSGAPPPS-NH2) [P531] | 69.7 | 69.9 | 301 | 94.6 | 
6 | Hexanoyl-HSDAVFTEQ[Tyr(OMe)]T[Orn]LRK(WPEG40K)QLA[Abu][Aib][Orn]YLQ[Aib]I[Orn][Orn]GGPSSGAPPPS-NH2 (reading uncertain) [P557] | 380 | 397 | 581 |  | 108
7 | C6-HSDAVFTEQ[Tyr(OMe)]T[Orn]LRC(PEG 40 kDa)QLA[Abu][Aib][Orn]YLQ[Aib]I[Orn][Orn]GGPSSGAPPPS-NH2 [P547] | 5.6 | 150 | 76.2 | 62 | 
8 | B2 | 4.1 | 21.3 | 86.7 | 13.4 | 4.5
9 | B3 | 32.3 | 33.8 | 163 | 21.2 | 36.1
10 | B4 | 48.3 | 31 | 137 | 20.3 | 
11 | B5 | 7.4 | 6.9 | 245 | 4.1 | 
